Reference: the nanobody polyreactivity screen of Harvey et al. (2022)

test: yeast display, Sf9 membrane polyspecificity reagent, FACS + sequencing; frameworks hold sequencing errors
How it was run: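 Galactose induction of a Saccharomyces cerevisiae BJ5465 synthetic nanobody display library ran 36–48 hours. The cells were then stained for 1 hour at 4 °C with 10% biotinylated, detergent-solubilized Sf9 membrane reagent, pulled down on streptavidin microbeads and FACS-sorted into low and high (top ~1%) gates on expression and reagent-binding fluorescence. Labels for polyreactivity follow the gate of origin.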

Row | Sequence | polyreactivity (PSR sort gate)
1 | QVQLVESGGGLVQAGGSLRLSCAASGRILLTYAMGWYRQAPGKERELVAAISSDSRTYYADSVKGRFTISRDNAKNTVYLQMNSLKPEDTAVYYCVRRRYKYDYWGQGTQVTVSS | low polyreactivity
2 | HVQLVESGGGLVQAGGRLRLSCAASGRNFVENAIGWYRQAPGKEWEFVAAISGGGSTDYADSVKGRFTISRDNAKNTVYLQMNSLKPEDTAVYYCNARQVFTTAGREMDYWGQGTQVTVSS | low polyreactivity
3 | QVQLVESGGGLVQAGGSLRLSCAASGSTFIDYAMGWYRQAPGKERELVAAITWSGSSTYYADSVKGRFTISRDNAKNTVYLQMNSLKPEDTAVYYCAARYWYQSYHTYGYYSWGQGTQVTVSS | low polyreactivity
4 | QVQLGESGGGLVQAGGSLRLSCAASGRIFYKNTMGWYRQAPGKERELVAAISWRGGSTYYADSVKGRFTISRDNAKNTVYLQMNSLKPEDTAVYYCNADIWAYKYDYWGQGTQVTVSS | high polyreactivity
5 | QVQLVESGGGLVQAGGSLRLSCAASGFTFVGNAMGWYRQAPGKERELVATITSGGNTKYADSVKGRFTISRDNAKNTVYLQMNILKPEDTAVYYCAADSDSFWGVPSYYWGQGTQVTVSS | low polyreactivity
6 | QVQLVESGGGLVQAGGSLRLSCAASGSTFEHYAMGWYRQAPGKERELVAAISYTGGNTYYADSVKGRFTISRDNAKNTVYLQMNSLKPEDTAVYYCAAAPLYYHRRGYYYWGQGTQVTVSS | high polyreactivity
7 | QVQLVESGGGLVQAGGSLRLSCAASGITFKPYGMGWSRQAPGKERELVADITSGGITYYADSVKGRFTISRDNAKNTVYLQMNSLKPEDTAVYYCAAPYQQHVYHHYWGQGTQVTVSS | low polyreactivity
8 | QDQLEESGGGLVQAGGSLRLSSAASGGTLYLYDMGWYRQAPGKERELVAAISYNGGSTYADSVKGRFTISRDNAKNTFYLQMNSLNPEDSAVYYCAADRPPRGLGGYWGQGTLVTVSS | low polyreactivity
9 | QVQLVESGGGLVQAGGSLRLSCAASGSIFTWNVKGWYRQAPGKERELVAAISSGGSTNYADSVKGRFTISRDNAKNTVYLQMNSLKPEDTAVYYCATYFRVWYRSYDYWGQGTQVTVSS | high polyreactivity
10 | QVQLVESGGGLVQAGGSLRLSSAASGSTFRYNALGWYRQAPGKERELVAAISSSGGSTRYADSVKGRFTISRDNEKYTDYLQMNSLKPEDTAVYYCDVRFYDWRYYYWGQGTQVTVSS | high polyreactivity
11 | QVQLVESGGGLVQAGGSLRLSCSASGSIFWYNAMGWYRHAPGKERELVAAISRSGSRTYYADSVKGRFTISRDYAKNTVYLQMNSLKPEDTAVYYCARVRPRVLYFVLHYDYWGQGTQVTVSS | high polyreactivity
12 | QVKLVESGGGLVQAGGSLRLSCAASGSIFSMYTMGWYRQAPGKARELVAAIDRSGGSTYYADSVKGRFTISRDNAKNTVYLQMNSLKPEDTAVYYCATDSVYIYDPYWSSIIEYDYWGQGTQVTVSS | low polyreactivity
13 | QVQLVESGGGLVQAGGSLRLSCAASGSIFHYYAMGWYRQAPGKERELVAAISWSGGRTNYADSVKGRFTISRDNAKNTVYLQMNSLKPEDTAVYYCAAAERSYSGGGKIGKYYYWGQGTQVTVSS | high polyreactivity
14 | QVQLVESGGGLVQAGGSLRLSCAASGSTFSRYAMGWYRQAPGKERELVAAITYRGARTYYADSVKGRFTISRDNAKNTVYLQMNSLKPEDTAVYYCNTVPPPYNFRYGYWGQGTQVTVSS | high polyreactivity
15 | QVQLVESGGGLVQEGGSLRLSCAASGSNFKRNTMGWYRQAPGKERELVAAISASGGRTYYADSVKGRFTISRDNAKNTVYLPMNSLKPEDTAVYYCNARFRIGRSELDYWGQGTQVTVSS | low polyreactivity
16 | QVQLLESGGGLVQAGGTLPLSCAASGRTFKYYAMGWYRQAPGKERELVAGISSTGRTNYADSVKGRFTISRDNAKNTVYLEMNSLKPEDTAVYYCNAERKSFGKFVYWGQGTLVTVSS | high polyreactivity
17 | QVQLVESGGRLVQAGGSLRLSCAPSGFIFGYYAMGWYRQAPGKERELVAAISPSGGRTYYADSVKGRFTISRDNAKITVFLQMNSLKPEDTAVYYCAAEYAYSLDPEEDYWGQGTQVTVSS | high polyreactivity
18 | QVQLVESGGGLVQAGGSLRLSCAASGRIFNLYAMGWYRQAPGKERDLVAAINWSGDRTYYADSVKGRFTISRDNAKNTVYLQMNSLKPDDTAVYYCNADGLEIERYAYWYVFLGYDYWGQGTQVTVSS | low polyreactivity
19 | QVQLVESGGGLVQAGGSLRLSCASSGFIFAYNAMGWYRQAPGKERELVAAISRSGGSTRYADSVKGRFTISRDNAKNTVYLQMNSLIPEDTAVYYCAADWSDYWDWSWYDYWGQGTQVTVSS | high polyreactivity
20 | QVQLVESGGGLVQAGGSLRLSCAASGRTFYLNAMGWYRQAPGKVRELVAAIRFSGGSTYYADSVKGRFTISRDNAKNTVYLQMNSLKPEDTAVYYCNAGPYHSLYPTVSEYGYWGQGTQVTVSS | low polyreactivity
21 | QVHLVESRGGLVQAGGSLRLSCAASVFTFRYYAMGWYRQAPGKERELVAAITSDGITNYADSVKGRFTISRDNAKNTVYLQMNSLKPEDTAVYYCAAVGWFYGIRLEYWGQGTQLTVSS | high polyreactivity
22 | QVQLVESGGGLVQAGGSLRLSCAASGRIFVRNAMGWYRQAPRKERELVADITNGGSTNYADSVKGRFTISRDNGMNTVYLQMNSLKPEDTAVYYCAADTLGVYDGDYWGQGTQVTVSS | low polyreactivity

Row | Sequence | polyreactivity (PSR sort gate)
23 | QVQLVESGGGLLQAGGSLRLSCAASGRIFYSNAMGWYRQAPGKERELVATRTRRGGGTYYADSVKGRFTISRDNAKNSVYLQMNSLKPVDTAVYSCNAYDILPGGNFWYWYGSWGQGTQVTVSS | high polyreactivity
24 | QVQLVESGGGLVQAGGSLRLSCAASGSIFDVYAMGWYRQAPGKERELVATMSNSAGSTYYADSVKGRFTISRDNAKYTVYLQMNSLKPEDTAVYYCAAVVVYFDEYDYWGQGTQVTVSS | low polyreactivity
25 | QVQLVESGGGLVQAGGSLRLSCGASGSIFYQNVMGWYRQAPGKERELVAAISSSGDSTYYADSVKGRFTISRDNAKNTVYLQMNSLKPEDTAVYYCAAEPEYVSGPYDYWGQGTQVTVSS | low polyreactivity
26 | QVQHVESGGGLVQAGGSLRLSCAASGSIFNLYVMGWYRQAPGKERELVATISSGGSTNYADSVKGRFTISRDNAKNTVYLQMNSLKPEDTAVYYCAKPYIVYYSMDYWGQGTQVTVSS | low polyreactivity
27 | QVQLVESGGGLVQAGGSLRLSCAASGRIVARYAMGWYRQAPGKERELVAAISPVGSTYYADSVKGRFTISRDNAKNTVYLQMTSLNPEDTGVYYCNAYNTRRSAPYVWRTYDYWGQGTQVTVSS | high polyreactivity
28 | QVQLEESGGGLVQAGGSLRLSCAASGRTLRVNAIGWYRQAPGKERELVAANSSGGRTNYADSVKGRFTISRDNAKNTVYLQMNSLKPEDTAVYYCAVDRPRFPSRPPYHKYDYWGQGTQVTVSS | low polyreactivity
29 | QVQHVESGGCLFQAGGILRLSCAASGIIFTYYDMGWYRQAPGKERELVAGIDYSGTSTYYADSVKGRFTISRDNAKNTVYLQMNSLKPEDTAVYYCAAVPVWVVYFSGEYYYWGQGTQVTVSS | high polyreactivity
30 | QVQLVESGGGLLQAGGSLRLSCAASGIIIYYYAMGWYRQAPGKERELVAAITYRGGSTYADSVKGRFTISRDNAKNTVYLQMNSLKPEDTAVYYCNAVWEEKYQAPGSYDYWGQGTQVTVSS | low polyreactivity
31 | QVQLVESGGGLVQAGGSLRLSCAASGSTFSNYAMGWYRQAPGKERELVAAISVRGGSTYYADSVKGRFTISRDNAKNTVYLQMNSLKPEDTAVYYCAKYYYYLRSARKYDYWGQGTQVTVSS | high polyreactivity
32 | QVQLVESGGGLVQAGGSLRLSCAASGLIFSYYVMGWYRQAPGKERELVAAISRIGGSTYYADSVKGRFTISRDNAKNTVYLQMNSLKPEDTAVYYCAAYDLSPGSLTGGYYWGQGTQVTVSS | high polyreactivity
33 | QVQLVESGGGLVQAGGSLRLSCAASGSIFGHYAMGWYRQAPGKERELVAAISYSGGSTYYADSVKGRFTISRDNAKNTVYLQMNILKPEDTAVYYCNADLYDAGSEMDYWGQGTQVTVSS | high polyreactivity
34 | QVQLVESGGGLVQAGGSLRLSCAASGSTFSYNAMGWYRQAPGKERELVAAISRGGITNYADSVKGRFTISRDNAKNTVYLQMNSLKPEDTAVYYCNAGYLGGPSYEYWGQGTLVTVSS | low polyreactivity
35 | QVQLVESGGGLVQAGGRLRLSCAASGSTFVLNDRGWYRQPPGKEREFVAAIDTSGGTTSYADSVKGRFTISRDNAKNTVYLQMNSLKPEDTAVYYCAALWFTRVHLFDSWGQGPQVTVSS | low polyreactivity
36 | QVQLVESGGGLVQAGGSLRLSCAASGRILHGYAMGWYRQAPGKERELVAAITSSGGRTYYADSVKGRFTISRDNAKNTVYLQMNSLKPEDTAVYYCAADRPAYRTGDSKYDYWGQGTQVTVSS | low polyreactivity
37 | QVQLVESGGGLVQAGGSLRLSCAASGSIFVTNAMGWYRQAPGKERELVAAISVSGGSTYYADSEKGRITISRDNAKNTVYLQMNRLKAEDTAGYYCNARQVFTTAGREMDYWGQGTQVTVSS | low polyreactivity
38 | QVKRVESGGGLVQAGGSLRLSCAASGSIFDEYAMGWYIQAPGKERELVAAITRTGGRTYYADSVKGRFTISRENAKNSVYLQMNSLIPEDTAVYFCNAPSRTRYDYWGQGTQVTVSS | low polyreactivity
39 | QVQLVESGGGLVQAGGSLRLSCAASGRTFKINAMGWYRPAPGKERELVAAISRGGGSTYADSVKGRFTISRDNAKNTVYLQMNSLKPEDTAVYYCAARVYGTRKINYSWGQGTQVTVSS | high polyreactivity
40 | QVQHVESGGGLVQAGGSLRLSCAASGRTFAGYAMGWYRQAPGKEWELVSGITRGVITNYADSVKGRFTISRDNAKNTVYLQMNSLKPEDTAVYSCNARTFPVRLYTPRYGYWGQGTQVTVSS | high polyreactivity
41 | QVQIEDSGGGLVQAGGSLRLICAASGFTFINNDMGWYRQAPGKERELVAAISDSDGTTYYADSVKGRFTISRDNAKNTVYLQMNSLKPEDTEVYYCAADVVPTWEDEYWGQGTQVTVSS | low polyreactivity
42 | QVQLVESGGGLVQAGGSLRLSCAASGSTFGSYTMGWYRQAPGKERELVAAINWSGGNTYYADSVKGRFTISRDNAKNTVYLQINSLKPEDTAVYYCAAAFYIYGVEGDYWGQGTQVTVSS | low polyreactivity
43 | QVQLVESGGGLVQAGGSLRLSCAASGRTFASNAMGWYRQAPGKERELVAAITISGGRTYYADSVKGRFTISRDNAKNTVYLQMNSLKPEDTAVYYCAAAKHSWRPSYYWGGYWGQGTQVTVSS | low polyreactivity
